According to patent publication US20230114801A1 (SYSTIMMUNE, published 2023):

B1: human CD3 (receptor)
chain 1: DGNEEMGGITQTPYKVSISGTTVILTCPQYPGSEILWQHNDKNIGGDEDDKNIGSDEDHLSLKEFSELEQSGYYVCYPRGSKPEDANFYLYLRARVCENCMEMD
chain 2: FKIPIEELEDRVFVNCNTSITWVEGTVGTLLSDITRLDLGKRILDPRGIYRCNGTDIYKDKESTVQVHYRMCQSCVELDPATVA
notes: also called His-tagged human CD3; human CD3 (Acro CDD-H52W1)

Legend:
human 4-1BB = molecular target: T1, human 4-1BB (human, UniProt Q07011 24-186, limits assumed); assay: BLI (Octet), binder on AHC sensor, 400 nM human 4-1BB, 1:1 fit
T1 construct: Soluble antigen in Octet; construct not described

human EGFR = molecular target: T2, human EGFR (human, UniProt P00533 25-645, limits assumed); assay: BLI (Octet), binder on AHC sensor, 200 nM human EGFR, 1:1 fit
T2 construct: Soluble antigen in Octet; construct not described

human PD-L1 = molecular target: T3, human PD-L1 (human, UniProt Q9NZQ7 19-238); assay: BLI (Octet), binder on AHC sensor, 20 nM human PD-L1, 1:1 fit
T3 construct: Soluble antigen in Octet; bought; also called human PD-L1 (Acro PD1-H5229)

human CD3 = molecular target: B1; assay: BLI (Octet), binder on AHC sensor, 100 nM human CD3, 1:1 fit
SI-49P9 = molecular target: T4, SI-49P9; assay: BLI (Octet); conditions not stated
T4 construct: penta-miniGNC; D1 αCD3, D2 αCD19, D3 NKG2D receptor dimer, D4 41BBL, D5 αPD-L1
T4 sequence (chain, as listed by the source, chain 1 of 2): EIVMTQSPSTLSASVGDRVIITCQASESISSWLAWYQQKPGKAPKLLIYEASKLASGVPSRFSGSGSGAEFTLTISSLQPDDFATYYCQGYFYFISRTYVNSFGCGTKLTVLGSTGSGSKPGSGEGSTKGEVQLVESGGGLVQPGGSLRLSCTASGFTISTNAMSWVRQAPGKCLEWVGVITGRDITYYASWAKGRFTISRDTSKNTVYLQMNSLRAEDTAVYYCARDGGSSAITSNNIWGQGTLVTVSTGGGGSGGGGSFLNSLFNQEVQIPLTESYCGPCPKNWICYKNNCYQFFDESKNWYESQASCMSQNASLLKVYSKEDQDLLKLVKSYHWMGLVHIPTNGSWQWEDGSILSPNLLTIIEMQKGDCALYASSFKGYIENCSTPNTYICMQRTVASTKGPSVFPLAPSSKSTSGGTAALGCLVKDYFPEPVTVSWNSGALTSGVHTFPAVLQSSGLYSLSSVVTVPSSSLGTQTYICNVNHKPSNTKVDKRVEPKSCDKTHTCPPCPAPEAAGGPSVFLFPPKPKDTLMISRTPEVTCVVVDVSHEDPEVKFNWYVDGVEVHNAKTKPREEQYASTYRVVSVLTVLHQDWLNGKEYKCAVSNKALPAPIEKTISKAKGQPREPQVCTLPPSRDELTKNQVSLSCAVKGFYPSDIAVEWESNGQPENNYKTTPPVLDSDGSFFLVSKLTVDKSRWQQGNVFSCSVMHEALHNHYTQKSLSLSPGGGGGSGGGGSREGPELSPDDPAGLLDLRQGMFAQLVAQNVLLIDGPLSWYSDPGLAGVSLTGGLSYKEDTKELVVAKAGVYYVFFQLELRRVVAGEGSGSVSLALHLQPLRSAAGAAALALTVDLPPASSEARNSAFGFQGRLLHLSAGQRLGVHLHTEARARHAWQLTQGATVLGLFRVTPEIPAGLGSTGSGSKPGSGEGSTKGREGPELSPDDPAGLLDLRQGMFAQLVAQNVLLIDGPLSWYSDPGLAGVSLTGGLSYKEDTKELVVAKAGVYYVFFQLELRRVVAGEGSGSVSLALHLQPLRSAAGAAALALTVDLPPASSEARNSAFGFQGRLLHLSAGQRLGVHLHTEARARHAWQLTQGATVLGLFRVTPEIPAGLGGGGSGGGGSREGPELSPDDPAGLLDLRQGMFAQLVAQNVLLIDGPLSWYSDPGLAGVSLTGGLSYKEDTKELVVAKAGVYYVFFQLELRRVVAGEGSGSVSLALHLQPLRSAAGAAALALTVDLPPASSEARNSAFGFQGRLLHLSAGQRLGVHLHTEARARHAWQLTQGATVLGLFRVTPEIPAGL
T4 sequence (chain, as listed by the source, chain 2 of 2): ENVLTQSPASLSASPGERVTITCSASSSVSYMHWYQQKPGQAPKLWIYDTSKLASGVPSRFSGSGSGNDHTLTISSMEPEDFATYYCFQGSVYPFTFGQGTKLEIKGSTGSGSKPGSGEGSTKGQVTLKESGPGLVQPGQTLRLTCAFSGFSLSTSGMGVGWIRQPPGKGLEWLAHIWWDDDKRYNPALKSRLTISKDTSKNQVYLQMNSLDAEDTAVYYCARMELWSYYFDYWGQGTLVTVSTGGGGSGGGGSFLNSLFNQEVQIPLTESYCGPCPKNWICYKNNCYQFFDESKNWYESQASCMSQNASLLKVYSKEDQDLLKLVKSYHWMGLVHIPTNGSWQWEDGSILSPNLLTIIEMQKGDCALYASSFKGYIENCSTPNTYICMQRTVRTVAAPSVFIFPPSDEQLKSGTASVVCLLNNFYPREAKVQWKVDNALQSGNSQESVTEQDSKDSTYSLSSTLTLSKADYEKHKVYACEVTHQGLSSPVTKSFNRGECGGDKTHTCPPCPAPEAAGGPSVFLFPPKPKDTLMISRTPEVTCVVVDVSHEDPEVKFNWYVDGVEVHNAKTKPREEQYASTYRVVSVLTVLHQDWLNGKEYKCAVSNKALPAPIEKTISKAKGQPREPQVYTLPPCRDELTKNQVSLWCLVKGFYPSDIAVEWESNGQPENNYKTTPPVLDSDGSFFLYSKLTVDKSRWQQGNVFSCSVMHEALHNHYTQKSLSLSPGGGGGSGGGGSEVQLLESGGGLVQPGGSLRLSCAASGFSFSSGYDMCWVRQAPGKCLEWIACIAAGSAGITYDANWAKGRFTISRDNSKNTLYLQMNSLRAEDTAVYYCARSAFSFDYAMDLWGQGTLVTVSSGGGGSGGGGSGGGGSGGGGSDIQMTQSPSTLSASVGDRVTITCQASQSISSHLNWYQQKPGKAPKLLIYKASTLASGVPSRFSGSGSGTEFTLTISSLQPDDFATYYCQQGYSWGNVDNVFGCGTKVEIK

SI-75P4 = molecular target: T5, SI-75P4; assay: BLI (Octet), binder on AHC sensor, 100 nM human antigen, 1:1 fit
T5 construct: penta-miniGNC; D1 αEGFR, D2 αHER3, D3 αCD3 (Fab), D4 41BBL (ligand of the 4-1BB receptor), D5 αPD-L1
T5 sequence (chain, as listed by the source): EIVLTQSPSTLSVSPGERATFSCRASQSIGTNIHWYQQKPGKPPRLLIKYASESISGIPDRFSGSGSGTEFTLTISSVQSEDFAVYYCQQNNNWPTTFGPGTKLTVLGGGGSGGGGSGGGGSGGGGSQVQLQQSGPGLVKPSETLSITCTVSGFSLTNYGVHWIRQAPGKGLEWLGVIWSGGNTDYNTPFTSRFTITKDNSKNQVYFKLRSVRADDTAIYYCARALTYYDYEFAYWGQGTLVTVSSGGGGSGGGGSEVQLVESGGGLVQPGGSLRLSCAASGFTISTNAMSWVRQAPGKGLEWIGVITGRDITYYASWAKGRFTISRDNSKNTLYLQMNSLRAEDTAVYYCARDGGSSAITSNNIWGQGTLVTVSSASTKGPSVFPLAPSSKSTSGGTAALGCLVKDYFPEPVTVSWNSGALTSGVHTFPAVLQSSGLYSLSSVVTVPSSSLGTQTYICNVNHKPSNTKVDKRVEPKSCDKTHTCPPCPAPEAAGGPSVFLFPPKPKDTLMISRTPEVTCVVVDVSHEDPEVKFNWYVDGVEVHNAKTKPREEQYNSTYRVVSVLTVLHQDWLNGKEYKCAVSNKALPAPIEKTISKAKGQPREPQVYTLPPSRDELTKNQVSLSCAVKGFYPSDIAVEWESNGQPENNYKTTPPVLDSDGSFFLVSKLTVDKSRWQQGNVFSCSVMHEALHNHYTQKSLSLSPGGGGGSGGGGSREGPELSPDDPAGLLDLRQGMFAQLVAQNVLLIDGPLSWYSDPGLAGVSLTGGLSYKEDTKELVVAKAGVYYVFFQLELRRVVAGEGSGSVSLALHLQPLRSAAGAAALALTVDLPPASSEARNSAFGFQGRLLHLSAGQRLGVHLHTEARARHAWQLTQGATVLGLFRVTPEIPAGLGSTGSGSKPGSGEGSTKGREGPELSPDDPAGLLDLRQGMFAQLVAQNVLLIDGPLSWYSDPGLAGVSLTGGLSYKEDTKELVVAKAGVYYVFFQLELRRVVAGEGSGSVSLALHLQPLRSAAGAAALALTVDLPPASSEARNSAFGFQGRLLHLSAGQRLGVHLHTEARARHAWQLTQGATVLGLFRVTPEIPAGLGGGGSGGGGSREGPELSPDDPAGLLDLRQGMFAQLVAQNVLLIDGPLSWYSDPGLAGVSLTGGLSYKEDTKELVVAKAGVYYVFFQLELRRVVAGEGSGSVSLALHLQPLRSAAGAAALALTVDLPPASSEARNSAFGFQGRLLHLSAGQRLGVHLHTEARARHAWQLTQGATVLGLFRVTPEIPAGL

Binder	Kd (human 4-1BB) [µM]	Kd (human EGFR) [µM]	Kd (human PD-L1) [µM]	Kd (human CD3) [µM]	Kd (SI-49P9) [µM]	Kd (SI-75P4) [µM]
SI-75P5 (other, penta-miniGNC; D1 αEGFR VHH, D2 αHER3 VHH, D3 αCD3 (Fab), D4 α4-1BB, D5 αPD-L1) chain 1: EVQLQESGGGLVQAGDSLSLSCLVSGRSFNSYTMGWFRQAPGKEREFVAAILWSGPTTYYADSVKGRFTISRDNAKNTVYLQMNSLKPEDTAVYYCAAALGVLVLAPGNVYSYWGQGTQVTVSSGGGGSGGGGSEVQLVESGGGLVQPGGSLRLSCAASGFTISTNAMSWVRQAPGKGLEWIGVITGRDITYYASWAKGRFTISRDNSKNTLYLQMNSLRAEDTAVYYCARDGGSSAITSNNIWGQGTLVTVSSASTKGPSVFPLAPSSKSTSGGTAALGCLVKDYFPEPVTVSWNSGALTSGVHTFPAVLQSSGLYSLSSVVTVPSSSLGTQTYICNVNHKPSNTKVDKRVEPKSCDKTHTCPPCPAPEAAGGPSVFLFPPKPKDTLMISRTPEVTCVVVDVSHEDPEVKFNWYVDGVEVHNAKTKPREEQYNSTYRVVSVLTVLHQDWLNGKEYKCAVSNKALPAPIEKTISKAKGQPREPQVYTLPPSRDELTKNQVSLSCAVKGFYPSDIAVEWESNGQPENNYKTTPPVLDSDGSFFLVSKLTVDKSRWQQGNVFSCSVMHEALHNHYTQKSLSLSPGGGGGSGGGGSDVVMTQSPSSVSASVGDRVTITCQASQNIRTYLSWYQQKPGKAPKLLIYAAANLASGVPSRFSGSGSGTDFTLTISDLEPGDAATYYCQSTYLGTDYVGGAFGGGTKLTVLGGGGSGGGGSGGGGSGGGGSEVQLVESGGGLVQPGGSLRLSCTASGFTISSYHMQWVRQAPGKGLEYIGTISSGGNVYYASSARGRFTISRPSSKNTVDLQMNSLRAEDTAVYYCARDSGYSDPMWGQGTLVTVSS chain 2: QVQLVQSGGGLVQAGGSLSLSCAFSGRTFSMYTMGWFRQAPGKEREFVAANRGRGLSPDIADSVNGRFTISRDNAKNTLYLQMDSLKPEDTAVYYCAADLQYGSSWPQRSSAEYDYWGQGTTVTVSSGGGGSGGGGSDVVMTQSPSTLSASVGDRVTINCQASESISSWLAWYQQKPGKAPKLLIYEASKLASGVPSRFSGSGSGTEFTLTISSLQPDDFATYYCQGYFYFISRTYVNSFGGGTKVEIKRTVAAPSVFIFPPSDEQLKSGTASVVCLLNNFYPREAKVQWKVDNALQSGNSQESVTEQDSKDSTYSLSSTLTLSKADYEKHKVYACEVTHQGLSSPVTKSFNRGECGGDKTHTCPPCPAPEAAGGPSVFLFPPKPKDTLMISRTPEVTCVVVDVSHEDPEVKFNWYVDGVEVHNAKTKPREEQYNSTYRVVSVLTVLHQDWLNGKEYKCAVSNKALPAPIEKTISKAKGQPREPQVYTLPPSRDELTKNQVSLWCLVKGFYPSDIAVEWESNGQPENNYKTTPPVLDSDGSFFLYSKLTVDKSRWQQGNVFSCSVMHEALHNRFTQKSLSLSPGGGGGSGGGGSDIQMTQSPSTLSASVGDRVTITCQASQSISSHLNWYQQKPGKAPKLLIYKASTLASGVPSRFSGSGSGTEFTLTISSLQPDDFATYYCQQGYSWGNVDNVFGGGTKVTVLGGGGSGGGGSGGGGSGGGGSEVQLLESGGGLVQPGGSLSLSCAASGFSFSSGYDMCWVRQAPGKGLEWIACIAAGSAGITYDANWAKGRFTISRDNSKNTLYLQMNSLRAEDTAVYYCARSAFSFDYAMDLWGQGTLVTVSS	0.0233	0.0235	0.00325	0.0261		
B1					0.0298	0.0227
